Laboratory results published in the RNAGym collection of RNA variant scans (doi:10.1073/pnas.2313332121).

B1: TPR t1 (parent)
chain: GACCAAUCUGCCCUCAGAGCUCGAGAACAUCUUCGGAUGCAGAGGAGGCAGGCUUCGGUGGCGCGAUAGCGCCAACGUCCUCAACCUCCAAUGCAUCCCACCACAUGAUGAUGCCUGAAGAGCCUUGGUUUUUUG

Variants of: B1
Experiment: polymerase ribozyme fitness, log enrichment relative to wild type (log ratio); higher = more active; in vitro selection for triplet polymerase activity
Summary of the method: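 Input and output libraries were sequenced on Illumina after a single in vitro selection round, run in triplicate on PCR-built, transcribed mutant libraries of each subunit of a heterodimeric triplet polymerase ribozyme. Selection annealed libraries to a biotinylated primer, the partner subunit and triplets, incubated them frozen at −7 °C, then gel-excised extended constructs for streptavidin-bead capture and RT-PCR. Genotypes with ≥10 input reads and ≥1 read per output were kept. Fitness is the logarithm, taken in base 2, of genotype enrichment divided by wild-type enrichment, using inverse-variance-weighted replicate averages.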

Variant	polymerase ribozyme fitness (log ratio)
GACCAAUCUGCGCUCAGAGCUCGAGAACAUCUUCGGAUGCAGAGGAGGCACGCUUCGGUGGCGCGAUAGCACCAACGUCCUCAACCUCCAAUGCAUCCCACCACAUGAUGAUGCCUGAAGAGCCUUGGUUUUUUG [C12G G51C G71A]	-6.1
GACCAAUCUGCGCUCAGAGCUCGAGAACAUCUUCGGAUGCAAAGGAGGCAGGCUUCGGUGGCGCGAUAGCGCCAACGUCCUCAACCUCCAAUGCAUCCCACCACAUGAUGAUGCCUGAAGAGCCUUGGUUUUUUG [C12G G42A]	-1.36
GACCAAUCUGCGCUCAGAGCUCGAGAACAUCUUCGGAUGCAGAGGAGUCAGGCUUCGGUGGUGCGAUAGCGCCAACGUCCUCAACCUCCAAUGCAUCCCACCACAUGAUGAUGCCUGAAGAGCCUUGGUUUUUUG [C12G G48U C62U]	-1
GACCAAUCUGCGCUCAGAGCUCGAGAACAUCUUCGUAUGCAGAGGAGGCAGGCUUCGGUGUCGCGAUAGCGCCAACGUCCUCAACCUCCAAUGCAUCCCACCACAUGAUGCUGCCUGAAGAGCCUUGGUUUUUUG [C12G G36U G61U A111C]	0.246
GACCAAUCUGCGCUCAGAGCUCGAGAACAUCUUCGGAUGCAGAGGAGGCAGGCUUCGGUGGCGCGAUACCGUCAACGUCCUCAACCUCCUAUGCAUCCCACCACAUGAUGAUGCCGGAAGAGCCUUGGUUUUUUG [C12G G69C C72U A90U U116G]	-6.29
GACCAAUCUGCGCCCAGAGCUCGAGAACAUCUUCGGAUGCAGAGGAGGCAGGCUUCGGUGGUGCGAUAGCGCCAACGUCCUCAAUUUCCAAUGCAUCCCACCACAUGAUGAUGCCUGAAGAGCCUUGGUUUUUUG [C12G U14C C62U C85U C86U]	-1.07
GACCAAUCUGCGCUCAGAGCUCGAGAACAUCUUCGGAUGCAGAAGAGGCAGGCUUCGGUGGCGCGAUAGCGCGAACGUCCUUAACCUCCAAUGCAUCCCACCACAUGAUGAUGCCUGAAGAGCCUUGGUUUUUUG [C12G G44A C73G C82U]	-0.977
GACCAAUCUGCGCUCAGAGCUCGAGAACAUCUUCGGAUGCAGAGGAUGCAGGCUUCGGUGGCGCGAUAGCGCCAACGUCCUCAACCUCCAAUGCAUCCCACCACAUGAUGAUGCCUGAAGAGCCUUGGUUUUUUG [C12G G47U]	-1.82
GACCAAUCUGCGCUCAGAGCUCGAGAACAUCUUCGGAUGCAGAGGAGACAGGCUUCGGUGGCGCGAUAGCGCCAACGUCCUCAACCUCCAAUACAUCCCACCACAUGAUGAUGCCUGAAGAGCCUUGGUUUUUUG [C12G G48A G93A]	-1.44
GACCAAUCUGCGCUCAGAGCUCGAGAACAUCUUCGGAUGCAGAGGAUGCAGGCUUCGGUGGCGCGAUAGCGCCAACGUCCUCAACCGCCAAUGCAUCCCACCACAUGAUGAUGCCAGAAGAGCAUUGGUUUUUUG [C12G G47U U87G U116A C124A]	-1.26
GACCAAUCUGCGCUCAGAGCUCGAGAACAUCUUCGGAUGCAGAGGAGGCAGGCUUCGGUGACGCGAUAGCGCCAACGUCCUCAACCUCCAAUGCAUCCCACCACAUGAUGAUGCCUGAAGAGCCUUGUUUUUUUG [C12G G61A G128U]	-1.84
GACCAAUCUGCGCUCAGAGCUCGAGAACAUCUUCGGAUUCAGAGGAGGCAGGCUUCGGUGACGCGAUAGCGCCAACGUCCUCAACCUCCAAUGCAUCCCACCACACGAUGAUGCCUGAAGAGCCUUCGUUUUUUG [C12G G39U G61A U106C G127C]	-2.63
GACCAAUCUGCGCUCAGAGCUCGAGAACAUCUUCGGAUGCAGAGGAGGCAGGCUUCGGUGGCUCGGUAGCGCCAACGUCCUCAACCUCCAAUGCAUCCCACCACAUGAAGAUGCCUGAUGAGCCUUUGUUUUUUG [C12G G63U A66G U109A A119U G127U]	-5.43
GACCAAUCUGCGCUCAGAGCUCGAGAACAUCUUCGGAUGCAGAGGAGGCAGGCUUCGGUGCCGCGAUAGCGCCAACGUCCUCAACCUCCAAUGCAUCCCACCAUAUGAUGAUGCGUGAAGAGCCUUGGUUUUCUG [C12G G61C C104U C115G U133C]	-5.69
GACCAAUCUGCGCUCAGAGCUCGAGAACAUCUUCGGAUGCAGAGGAGGCAGGCUUCGGUGGCGCGAUAGCGCCAACGUCCUCAACCUCCAAUGCAUCCCACCACAUGAUGAUGCCUCAAGAGCCUGGGUUUUUUG [C12G G117C U126G]	-3.28
GACCAAUCUGCGCUCAGAGCUCGAGAACAUCUUCGGAUGCAGAGGAGGCAGGCUUCGGUGGCGCGAUAGCGCCAACGUCCUCAACCUCCAAUGCAUCCCACCACAUGAUGAUUCCUGAAGAGCCUUGGUUUUUUG [C12G G113U]	-3.38
GACCAAUCUGCGCUCAGAGCUCGAGAACAUCUUCGGAUGCAGAGGAGCCAGGCUUCGGUGGCGCGAUAGCGCCAACGUCCUCAACCUCCAAUGCAUCCCACCACAUGAUGAUGCCUGAAGAGCCUUGGUUUUUUU [C12G G48C G135U]	-1.51
GACCAAUCUGCGCUCAGAGCUCGAGAACAUCUUCGGAUGCAGAGGAGGCAAGCUUCGGUGGCGCGAUAGCGCCAACGUCCUCAACCUCCAAUGCAUCCCACCACAUGAUGAUGCCUGAAGAGCCUUGGUUUUUUG [C12G G51A]	-2.1
GACCAAUCUGCGCUCAGAGCUCGAGAACAUCUUCGGAUGCAGAGGAGGCAGGCUUCGGUGGCGCGAUAGCGCCAACGUCCUCAACCUCCAAUUCAUCCCACCACAUGAUGAAGCCUGAAGAGCCUUGGUUUUUUG [C12G G93U U112A]	0.281
GACCAAUCUGCGCUCAGAGCUCGAGAACAUCUUCGGAUGCAGAGGAGGCAGGCUUCGGUGGCGCGAUAUCGCCAACGUCCUCAACCUCCAAUGCAUCCCACCACAUGAUGAUGCAUGAAGAGCCUUGGUUUUUUG [C12G G69U C115A]	0.211
GACCAAUCUGCGCACAGAGCUCGAGUACAUCUUCGGAUGCAGAGGAGGCAGGCUUCGGUGGCGCGAUAGCGUCAACGUCCUCAACCUCCGAUGCAUCCCACCACAUGAUGAUGCCUGAAGAGACUUGGUUUUUUG [C12G U14A A26U C72U A90G C123A]	-2.58

Variant	polymerase ribozyme fitness (log ratio)
GACCAAUCUGCGCUCAGAGCUCGAGAACAUCUUCGCAUGCAGAGGAGGCAGGCUUCGGUGGCGCGUUAGCGCCAACGUCCUCAAUAUCCAAUGCAUCCCACCACAUGAUGAUGCCUGAAGAGCCUUGGUUUUUUG [C12G G36C A66U C85U C86A]	-3.38
GACCAAUCUGCGCUCAGAGCUCGAGAACAUCUUCGGAUGCAGAGGAGGCAGGCUUCGGUGGCGCGAUAGCGCCAACGUCCUCAACCUCCAAUGCAUCCCACCACAUGAUUAUGCCUGAAGAGCCUUGGUAUUUUG [C12G G110U U130A]	-1.34
GACCAAUCUGCGCUCAGAGCUCGAGAACAUCUUCGGAUGCAGAGGACGCAGGUUUUGGUGGCGCGAUAGCGCCAACGUCCUCAACCUCCAAUGCAUCCCACCACAUGAUGAUACCUGCAGAGCCUUGGUUUUUUG [C12G G47C C53U C56U G113A A118C]	-5.05
GACCAAUCUGCGCUCAGAGCUCGAGAACAUCUUCGGAUGCAGAGGAGGCAGGCUUCGAUGAUGCGAUAGCGCCAACGUCCUCAACCUCCAAUGCAUCCCACCACAUGAUGAUGCCUGAAGAGCGUUGGUUUUUUG [C12G G58A G61A C62U C124G]	0.824
GACCAAUCUGCGCUCAGAGCUCGAGAACAUCUUCGGAUGCAGAGGAGGCAGGCUUCGGUGGCGCGAUAGCGCCAACGUCCUCAACCUCCAAUGCAUCCCACCACAUGAUGAUGCCUGAAAAGCCUUGGUUUUUUG [C12G G120A]	1.87
GACCAAUCUGCGCUCAGAGCUCGAGAACAUCUUCGGAUGCAGAGGAGGCAGGCUUCGGUGGCGCGAUAGCGCCAACGUCCUCAACCUCCAAUGCAUCCCACCACAUGAUGAUGCCUGAAGAGCGUUGGUUUUUUG [C12G C124G]	0.742
GACCAAUCUGCGCUCAGAGCUCGAGAACAUCUUCGGAUGCAGAGGAGGCAGGCUUCGGUGGCGCGAUAGCGCCAACGUCCUCAACCUCCAAUACAUCCCACCACAUGAUGAUGCCUGAAGAGCCUUGGUUUUUUG [C12G G93A]	-0.233
GACCAAUCUGCGCUCAGAGCUCGAGAACAUCUUCGCAUGCAGAGGAGGCAGGCUUCGAUGGCGCGAUAGCGCCAACGUCCUCAACCUCCAAUGCAUCCCACCACAUGAUGAUGCCUGAAGAGCCUUGGUUUUUUG [C12G G36C G58A]	-1.29
GACCAAUCUGCGCUCAAAGCUCGAGAACAUCUUCGGAUGCAGAGGAGGCAGGCUUCGGUGGUGCGAUAGCGCCAACGUCCUCAACCUCCAAUGCAUCCCAUCACAUGAUGAUGCCUGAAGAGCCUUGGUUUUUUG [C12G G17A C62U C101U]	-5.49
GACCAAUCUGCGCUCAGAGCUCGAGAACAUCUUCGAAUGCAGAGGAGGCAGGCUUCGGUGGCGCGAUAGCGCCAACGUCCUCAACCUCCAAUGAAUCCCACCACAUGAUGAUGCCUGAAGAGCCUUGGUUUUUUG [C12G G36A C94A]	-3.18
GACCAAUCUGCGCUCAGAGCUCGAGAACAUCUUCGGAUGCACAGGAGGCAGGCUUCGGUGGCGCGAUAGAGCCAACGACCUCAACCUCCAUUGCAUCCCACCACAUGAUGAUGCCUGAAGAGCCUUGGUUUUUUG [C12G G42C C70A U78A A91U]	-5.9
GACCAAUCUGCGCUCAGAGCUCGAGAACAUCUUCGGAUGCAGAGGAGGCAGGCUUCGGUGGCGCCAGAGCGCCAACGUCCUCAACCUCCAAUGCGUCCCACCACAUGUUGAUGCCUGAUGAGUCUUGGUUUUUUG [C12G G65C U67G A95G A108U A119U C123U]	-5.89
GACCAAUCUGCGCUCAGAGCUCGAGAACAUCUUCGGAUGCAGAGGAGGCAGGCUUCGGUGGCGCGAUAGCCCCAACGUCCUCAACCUCCAAUGCAUCCCACCACGUGAUGAUGCCUGAAGAGCCAUGGUUUUUUG [C12G G71C A105G U125A]	-4.36
GACCAAUCUGCGCUCAGAGCUCGAGAACAUCUUCGGAUGCAGAGGAGGCAGGCUUCGGUAGCGCGAUAGCGCCAACGUCCUCAACCUCCAAUGCAUCCCACCACAUGAUGAUGCGUGAAGAGCCUUGGUUUUUUG [C12G G60A C115G]	-4.95
GACCAAUCUGCGCUCAGAACUCGAGAACAUCUUCGGAUGCAGAGGAGGCAGGCUUCGGUGGCGCGAUAGCGCCAACGUCCUCAACCUCCAAUUCAUCCCACCACAAGAUGGUGCAUGAAGAGCCUUGGUUUUUUG [C12G G19A G93U U106A A111G C115A]	-6.62
GACCAAUCUGCGCUCAGAGCUCGAGAACAUCUUCGGAUGCAGAGGAGGCAGUCUUCGGUGGCGCGAUAGCGCCAACGUCCUCAACCUCCAAUGCAUCCCACCACAUGAUGAUGCCUGAAGAGCCUUGGUUUUUUG [C12G G52U]	-0.405
GACCAAUCUGCGCUCAGAGCUCGAGAACAUCUUCGGAUUCAGAGGAGGCAGGCUUCGGUGUCGCGAUAGCGCCAACGUCCUCAACCUCCAAUGCAUCCCACCACAUGAUGAUGCCUGAAGAGCCUUGGUUUUUUG [C12G G39U G61U]	0.0718
GACCAAUCUGCGCUCAGAGCUCGAGAACAUCUUCGGAUGCAGAGUAGGCAGGCUUCGGUGGCGCGAUAGCGACAACGUCCUCAACCUCCAAUGCAUCCCACCACAUGAUGAUGCCUGAAGAGCCUUAGUUUUUUG [C12G G45U C72A G127A]	-2.17
GACCAAUCUGCGCUCAGAGCUCGAGAACAUCUUCGGAUGCAGAGCAGGCAGGCUCCGGUGGCGCGAUAGCGUCAACGUCCUCAAACUCCAAUGCAACCCACCACAUGAUGAUGCCUGAAGAGCCUUGGUUUUUUG [C12G G45C U55C C72U C85A U96A]	-4.29
GACCAAUCUGCGCUCAGAAUUCGAGAACAUCUUCGGAUGCAGAGGAGGCAGGCUUCGGUGGCGCGAUAGCGCCAACGUCCUCAACCUCCAAUGCAUCUCACCACAUGAUGAUGCCUGAAGAGCCUUGGUUUUUUG [C12G G19A C20U C98U]	-3.29
GACCAAUCUGCGCUCAGAGCUCGAGAACAUCUUCGGAUGCAGAGGAGGCAGGCUUCGGUGUCGCGAUAGCGCCAACGUCCUCAACCUCCAAUGCAUCCCACCACAUGAUGAUGCCUGAAUAGCCUUGGUUUUUUG [C12G G61U G120U]	2.2
